Assay [1] has as its target T1, recombinant human VEGF165 (human, UniProt P15692 27-191).
T1 construct: mature; Secreted VEGF is described as an obligate dimer; also called free VEGF; VEGF-biotin
Nature of the assay: ELISA on VEGF coated wells, HRP-labelled anti-mouse IgG and OPD.

Assay [2] has as its target T2, VEGF:sFlk-1 complex (human; mouse, UniProt P15692 27-191; P35918 20-762, limits assumed, biotinylated).
T2 construct: mature;extracellular domain; also called VEGF:receptor complex
Nature of the assay: capture ELISA: biotinylated sFlk-1 complexed with VEGF titrated onto wells coated with the antibody; concentration giving 50% maximal binding.

In assay [3] the target is T3, mouse VEGF (mouse, UniProt Q00731-2 27-190, limits assumed).
T3 construct: In indirect ELISA (source not described) and in mouse 3LL tumor sections
T3 sequence (looked up): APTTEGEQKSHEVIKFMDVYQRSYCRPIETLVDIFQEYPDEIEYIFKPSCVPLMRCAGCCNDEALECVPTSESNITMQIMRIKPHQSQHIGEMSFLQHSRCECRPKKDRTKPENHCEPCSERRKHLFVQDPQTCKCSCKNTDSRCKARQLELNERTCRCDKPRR
As to the kind of experiment: indirect ELISA.

Assay [4] has as its target T1, recombinant human VEGF165. As to the kind of experiment: printed as 'Affinity'; estimated by ELISA and surface plasmon resonance analysis.
Assay [5] deals with T1, recombinant human VEGF165. As to the kind of experiment: capture ELISA: biotinylated VEGF titrated onto wells coated with the antibody, peroxidase-avidin; concentration giving 50% maximal binding.

T2 sequence (P35918 20-762 limits assumed, one chain of several): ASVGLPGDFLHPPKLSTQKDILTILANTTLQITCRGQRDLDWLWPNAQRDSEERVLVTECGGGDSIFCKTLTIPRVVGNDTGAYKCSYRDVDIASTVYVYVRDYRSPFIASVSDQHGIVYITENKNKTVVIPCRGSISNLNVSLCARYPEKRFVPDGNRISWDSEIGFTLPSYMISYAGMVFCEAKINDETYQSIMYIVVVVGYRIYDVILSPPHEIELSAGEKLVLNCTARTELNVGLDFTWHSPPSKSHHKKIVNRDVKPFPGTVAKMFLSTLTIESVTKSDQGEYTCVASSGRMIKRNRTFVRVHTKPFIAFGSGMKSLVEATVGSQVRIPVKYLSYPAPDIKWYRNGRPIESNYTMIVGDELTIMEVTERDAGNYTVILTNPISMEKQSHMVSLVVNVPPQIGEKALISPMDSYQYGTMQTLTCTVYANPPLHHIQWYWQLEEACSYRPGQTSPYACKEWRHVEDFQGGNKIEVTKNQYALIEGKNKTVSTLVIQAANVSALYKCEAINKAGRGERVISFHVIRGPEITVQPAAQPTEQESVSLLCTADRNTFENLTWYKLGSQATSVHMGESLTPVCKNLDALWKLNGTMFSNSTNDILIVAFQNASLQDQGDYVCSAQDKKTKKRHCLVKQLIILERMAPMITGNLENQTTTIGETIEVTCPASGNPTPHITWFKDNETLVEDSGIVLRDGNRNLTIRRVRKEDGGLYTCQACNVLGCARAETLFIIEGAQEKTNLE

B1: 2C3-GUS conjugate (other)
VH: KLQVQLQESGPELVKPGASVKMSCKASGYTFTSYVFHWVKQKPGQGLEWIGYINPYNDVTKYNEKFKGKATLTSDKSSSTAYMELSSLTSEDSAVYYCASYYGSSYGYYAMDDWGQGTTVTVSSGGG
VL: DIQLTQSPASLSVSAGEKVTMSCKSSQSLLNSGNQKNYLAWYQQKPGQPPKLLIHGASTRESGVPDRFTGSGSGTDFTLTISSVQAEDLAVYYCQNDYSYPLTFGAGTKLELKRL
chain: MLRPVETPTREIKKLDGLWAFSLDRENCGIDQRWWESALQESRAIAVPGSFNDQFADADIRNYAGNVWYQREVFIPKGWAGQRIVLRFDAVTHYGKVWVNNQEVMEHQGGYTPFEADVTPYVIAGKSVRITVCVNNELNWQTIPPGMVITDENGKKKQSYFHDFFNYAGIHRSVMLYTTPNTWVDDITVVTHVAQDCNHASVDWQVVANGDVSVELRDADQQVVATGQGTSGTLQVVNPHLWQPGEGYLYELCVTAKSQTECDIYPLRVGIRSVAVKGEQFLINHKPFYFTGFGRHEDADLRGKGFDNVLMVHDHALMDWIGANSYRTSHYPYAEEMLDWADEHGIVVIDETAAVGFNLSLGIGFEAGNKPKELYSEEAVNGETQQAHLQAIKELIARDKNHPSVVMWSIANEPDTRPQGAREYFAPLAEATRKLDPTRPITCVNVMFCDAHTDTISDLFDVLCLNRYYGWYVQSGDLETAEKVLEKELLAWQEKLHQPIIITEYGVDTLAGLHSMYTDMWSEEYQCAWLDMYHRVFDRVSAVVGEQVWNFADFATSQGILRVGGNKKGIFTRDRKPKSAAFLLQKRWTGMNFGEKPQQGGKQ
modifications: SATA-modified, deacetylated; SMCC-modified IgG, linked by thioether to SATA-modified GUS
notes: Chemical conjugate of 2C3 IgG (mouse IgG2a,k) and 6-His GUS; GUS runs as a tetramer of about 300 kDa on gel filtration; not shown: N-terminal 6x histidine tag encoded by vector H6pQE60
Regarding B1, the EC50 in assay [1] was 0.1 nM.

B2: monoclonal antibody 2C3 (ATCC PTA 1595) (antibody, V domains shown)
VH: QVQLQESGPELVKPGASVKMSCKASGYTFTSYVFHWVKQKPGQGLEWIGYINPYNDVTKYNEKFKGKATLTSDKSSSTAYMELSSLTSEDSAVYYCASYYGSSYGYYAMDDWGQGTTVTVSS
VL: DIQLTQSPASLSVSAGEKVTMSCKSSQSLLNSGNQKNYLAWYQQKPGQPPKLLIHGASTRESGVPDRFTGSGSGTDFTLTISSVQAEDLAVYYCQNDYSYPLTFGAGTKLELKR
notes: also called 2C3 IgG
Regarding B2, the results for the EC50 in assay [2] and in assay [5] were 150 nM and 1 nM, respectively. In addition, the binding result in assay [3] is reported as “no binding”. The Kd in assay [4] was 1 nM.

These data come from patent US20020119153A1 (University of Texas, published 2002).
